The target of test [1] is histidine-tagged PD-1 (UniProt Q15116 25-167). Nature of the test: Octet. (In general: Biolayer interferometry detects binding as a change in optical thickness at a sensor tip.)
Test [2] concerns the target 21480B. Briefly: Octet.

histidine-tagged PD-1, sequence (Q15116 25-167): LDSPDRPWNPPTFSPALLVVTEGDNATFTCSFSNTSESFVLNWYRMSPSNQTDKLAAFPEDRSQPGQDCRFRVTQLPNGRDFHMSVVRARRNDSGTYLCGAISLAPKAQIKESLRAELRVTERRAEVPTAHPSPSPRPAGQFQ

B1: XENP22553, humanized variant 1C11[PD-1]_H3L3 of anti-PD-1 clone 1C11 (antibody, V domains shown)
VH: QIQLVQSGSELKKPGASVKVSCKASGYTFTHYGMNWVRQAPGQGLEWMGWINTYTGEPTYADGFTGRFVFSLDTSVSTAYLQISSLKAEDTAVYFCARDYYGSSPYWGQGTLVTVSS
VL: DVLMTQSPDSLAVSLGERATINCKSSQSIVHSNGNTYLEWYQQKPGQSPKLLIYKVSNRFSGVPDRFSGSGSGTDFTLTISSLQAEDVAVYYCFQGSHVPNTFGGGTKVEIKR
For the molecule B1, binding in test [1] was characterised by a dissociation constant (Kd) of 19.1 nM.

B2: IL2Rbeta (receptor)
chain: AVNGTSQFTCFYNSRANISCVWSQDGALQDTSCQVHAWPDRRRWNQTCELLPVSQASWACNLILGAPDSQKLTTVDIVTLRVLCREGVRWRVMAIQDFKPFENLRLMAPISLQVVHVETHRCNISWEISQASHYFERHLEFEARTLSPGHTWEEAPLLTLKQKQEWICLETLTPDTQYEFQVRVKPLQGEFTTWSPWSQPLAFRTKPAALGKD
Turning to B2, the Kd (as a rule, the constant that tells how readily two partners part at equilibrium) in test [2] stood at 8.1 nM.

These data come from patent US20190389933A1 (published 2019).
